Laboratory results from patent US20260226160A1 (ISAR BIOSCIENCE, published 2026).
Changes are numbered by the printed parent chain. One block for each binder: values may come before it.

Legend:
[1] = biological target: T1, epitope peptide from the human TREM2 stalk region (DAGDLWFPG) (human); assay: ELISA, coated epitope peptide SEQ ID NO: 16
T1 construct: also called human TREM2 peptide fragment
T1 peptide: DAGDLWFPG
Description: (§1) Anti-TREM2 antibody binding to the extracellular domain of TREM2 (ecTREM2) or to the human or mouse peptide fragment of the stalk region of TREM2 were quantified in an ELISA assay. All procedures were performed at room temperature and incubations were done on a microtiter plate shaker. ELISA plate was coated with 60 μl/well (final concentration 0.5 μg/ml) of the according ligand (ecTREM2 (Hölzel Diagnostika, 11084-H08H) or human or mouse TREM2 peptide fragment) in coating buffer (NaHCO₃) for 1 h. The coated plate was washed three times with PBS-T (PBS, 0.1% Tween-20), blocked with 100 μl/well of blocking solution (PBS-T, 3% milk powder) for 1 h, and washed again. Antibodies were pre-diluted 1:10 in PBS and set to a concentration of 1 μg/ml. A dilution series was performed with dilution steps of 1:3 and 1:10. 50 μl/well of diluted AB were transferred to the blocked ELISA plate and incubated for 1 h. The plate was washed three times with PBS-T and incubated with anti-human-Strep-POD (Jackson Immunoresearch, #109-035-098) diluted in PBS-T 1:10000 for 1 h. After washing three times, bound POD was detected by incubation with 100 μl/well of TMB substrate (Thermo Scientific, #34029) until a maximal optical density (OD) of about 1 to 2 was reached. Finally, the colorimetric reaction was stopped with 100 μl/well stopping solution (1M H₂SO₄) and the OD determined at a wavelength of 450 nm with a reference wavelength of 595 nm in a plate reader (SpectraMax i3xl).

[2] = biological target: T2, extracellular domain of human TREM2 (ecTREM2), Hölzel Diagnostika 11084-H08H (human, UniProt Q9NZC2 19-174); assay: ELISA, coated ecTREM2
T2 construct: extracellular domain; also called human ecTREM2; ecTREM2 domain
T2 sequence (looked up): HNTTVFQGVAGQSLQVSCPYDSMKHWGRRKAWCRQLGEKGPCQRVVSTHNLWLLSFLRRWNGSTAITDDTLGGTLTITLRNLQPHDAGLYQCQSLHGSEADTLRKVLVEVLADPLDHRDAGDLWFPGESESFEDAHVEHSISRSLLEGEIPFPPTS
Description: as §1
(§2) We determined the binding affinity of all antibody clones including M07 as well as of the control antibody H01 and negative control (not shown here), to ecTREM2 by an ELISA-based binding assay (FIG. 2).

[3] = biological target: T3, human TREM2 (hTREM2) on cells (human, UniProt Q9NZC2 19-230); assay: cell-based or functional assay
T3 sequence (looked up): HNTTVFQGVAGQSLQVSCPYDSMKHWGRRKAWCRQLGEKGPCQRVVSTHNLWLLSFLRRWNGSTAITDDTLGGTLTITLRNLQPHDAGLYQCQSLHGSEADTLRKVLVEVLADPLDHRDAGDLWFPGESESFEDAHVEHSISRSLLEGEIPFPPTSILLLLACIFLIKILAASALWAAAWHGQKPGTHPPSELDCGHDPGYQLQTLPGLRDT

[4] = biological target: T3, human TREM2 (hTREM2) on cells; assay: printed with the p-SYK titration curve of M07 on HEK293-Flp-In hTREM2/hDAP12 cells (FIG. 6B); how it was derived is not told
Description: Phosphorylated SYK (p-Syk) was measured using the AlphaLISA SureFire Ultra p-SYK Assay Kit (PerkinElmer, ALSU-PSYK-A-HV) following the manufacturer's instructions. Briefly, HEK293 cells overexpressing human TREM2 and human DAP12 were plated in 50 μl media at a density of 50,000 cells/well in a 96-well plate and incubated overnight at 37° C. in a cell culture incubator. The next day medium was removed and 50 μl of antibody diluted in medium was added to the cells. Following an incubation for 5 min at 37° C. treatment solutions were removed and cells were lysed with 50 μl lysis buffer supplemented with phosphatase inhibitor (VWR) for 10 min on a plate shaker (~350 rpm). 30 μl of lysate were then used for further incubation steps with acceptor and donor beads (each for 1 h) following analysis using a CLARIOstar^Plus Plate Reader (BMG Labtech).

[5] = biological target: T3, human TREM2 (hTREM2) on cells; assay: cell-based or functional assay; remark: listed apart in the source
[6] = biological target: T2, extracellular domain of human TREM2 …; assay: ELISA, coated ecTREM2 (0.5 µg/ml), antibody dilution series
Description: as §1, with “A dilution series was performed with dilution steps of 1:3 and 1:10. 50 μl/well of diluted AB were transferred to the blocked ELISA plate and incubated for 1 h. The plate was washed three times with PBS-T and incubated with anti-human-Strep-POD (Jackson Immunoresearch, #109-035-098) diluted in PBS-T 1:10000 for 1 h.” left out
as §2

[7] = biological target: T1, epitope peptide from the human TREM2 …; assay: ELISA, coated epitope peptide (0.5 µg/ml), antibody dilution series
Description: as §1, with “The plate was washed three times with PBS-T and incubated with anti-human-Strep-POD (Jackson Immunoresearch, #109-035-098) diluted in PBS-T 1:10000 for 1 h.” left out

EC50 [1]: 0.335 nM
EC50 [2]: 0.204 nM
EC50 of p-SYK signaling titration in HEK293-Flp-In hTREM2/hDAP12 [3]: 4.39 nM
SYK phosphorylation, fold increase [3]: ≤ 60 fold
Kd [4]: 2.19 nM
Mean values of fold increase over baseline (p-SYK AlphaLISA, 40 µg/ml antibody, HEK293-Flp-In hTREM2/hDAP12) [5]: 36.1 fold
B1: antibody M07 (clone M07), fully human anti-hTREM2 IgG1-LALA-TFN (antibody, V domains shown)
VH: EVQLLESGGGLVQPGGSLRLTCAASGFTFSSYAMSWVRQAPGKGLEWVSVINGRGSNTYYADSVKGRFTITRDNSKNTLYLEMNSLRAEDTAVYYCARVRAYSGPSYGFDYWGQGTLVTVSS
VL: DIQLTQSPLSLSASAGDRVTITCRASQSIRDYLGWYQQKPGKAPKLLIYAASKLQSGVPSRFSGSGSGTDFTLTISSLQPEDFATYYCQQSYHTPPFTFGQGTKVEIKR
notes: leaders are cleaved off; also called anti-hTREM2 antibody M07; MO7

EC50 [1]: 0.329 nM
EC50 [2]: 0.35 nM
Mean values of fold increase over baseline (p-SYK AlphaLISA, 40 µg/ml antibody, HEK293-Flp-In hTREM2/hDAP12) [5]: 9.39 fold
B2: antibody M03 (clone M03), fully human IgG1-LALA (antibody, V domains shown)
VH: EVQLVQSGGGLVQPGGSLRLSCAASGFTFSSYGITWVRQAPGKGLEWVSFISGGGSYTYYADSVKGRFTISRDNAKRTLYLQMNSLRAEDTAVYYCARSGRAYFDYWGQGTLVTVSS
VL: DIRLTQPPSVSGAPGQRVTISCSGSSSNIGSLFVSWYQQLPGTAPKLLIYSNSQHPSGVPDRFSGSKSGTSASLAITGLQAEDEADYYCSAYDQFSNSVVFGGGTKLTVLG

binding result [6]: no binding
Mean values of fold increase over baseline (p-SYK AlphaLISA, 40 µg/ml antibody, HEK293-Flp-In hTREM2/hDAP12) [5]: 1.07 fold
binding result [7]: no binding
B3: antibody M05 (clone M05), fully human IgG1-LALA (antibody, V domains shown)
VH: EVQLLESGGGLVQPGGSLRLSCAASGFTFSSNAMTWVRQAPGKGLEWVSVIGSSGSYTYYADSVKGRFTISRDNSKNTLYLQMNSLRAEDTAVYYCARSGTTGFDYWGQGTLVTVSS
VL: B2 VL with R3V, L4M, G12V, A13T, S23R, G24S, G111R

EC50 [1]: 0.832 nM
EC50 [2]: 0.19 nM
Mean values of fold increase over baseline (p-SYK AlphaLISA, 40 µg/ml antibody, HEK293-Flp-In hTREM2/hDAP12) [5]: 3.22 fold
B4: antibody H08 (clone H08), fully human IgG1-LALA (antibody, V domains shown)
VH: EVQLVQSGGGLVQPGGSLRLSCAASGFTFSSYAMSWVRQAPGKGLEWVSAISGSGGSTYYADSVKGRFTISRDNAKRSLYLQMNDLRVEDTAVYYCARTRTNVFDFWGQGTMVTVSS
VL: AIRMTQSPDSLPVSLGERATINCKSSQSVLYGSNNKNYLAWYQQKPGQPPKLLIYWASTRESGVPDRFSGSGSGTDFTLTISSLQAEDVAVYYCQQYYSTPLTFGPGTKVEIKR
